According to patent US20150299265A1 (Molecular Partners, published 2015):

Columns and labels:
[1] = target: T1, Recombinant human HER2 ectodomain (human, UniProt P04626 23-652, biotinylated on primary amines (for SPR and crude extract ELISA)); experiment: ELISA on plate-coated full length HER2 (domain I-IV), detection by anti-RGS-His antibody; with and without 500 nM soluble HER2 domain I or domain I-III
T1 construct: extracellular domain; also called ErbB2; ectodomain of human HER2; not shown: Flag tag

[2] = target: T1, Recombinant human HER2 ectodomain; experiment: SPR (ProteOn); biotinylated human HER2 on neutravidin chip, monovalent DARPin injected
Method: Protein binding kinetics of interesting purified HER2-binding DARPins were assayed by Surface Plasmon Resonance (SPR) analysis with a ProteOn array system (BioRad) using a setup, where biotinylated human HER2 was immobilized via neutravidin and the interaction was measured by adding free monovalent DARPin. The determination of Kd values was performed according to standard procedures.
SPR was measured using a ProteOn instrument (BioRad) and measurement was performed according standard procedures known to the person skilled in the art. The running buffer was PBS, pH 7.4, containing 0.005% Tween 20®. Neutravidin was covalently immobilized on a GLC chip (BioRad) to a level of about 8000 resonance units (RU). Immobilization of HER2 on the neutravidin coated chip was then performed. […] The signals (i.e. resonance unit (RU) values) of an uncoated reference cell and a reference injection (i.e. injection of running buffer only) were subtracted from the RU traces obtained after injection of […] (double-referencing). From the SRP traces obtained from the on-rate and off-rate measurements the on- and off-rate of the corresponding DARPin HER2 interaction can be determined.
Dissociation constants (Kd) were calculated from the estimated on- and off-rates using standard procedures known to the person skilled in the art.

[3] = target: T2, Human HER2 expressed on tumour cells (human, UniProt P04626 23-1255); experiment: cell-based or functional assay
[4] = target: T2, Human HER2 expressed on tumour cells; experiment: cell-based or functional assay; remark: listed apart in the source

Kd [2] [nM]	Binder	further results
	DARPin #50 (designed binder, also called negative control ankyrin repeat domain) MRGSHHHHHHGSDLGKKLLEAARAGQDDEVRILMANGADVNAKDKDGYTPLHLAAREGHLEIVEVLLKAGADVNAKDKDGYTPLHLAAREGHLEIVEVLLKAGADVNAQDKFGKTAFDISIDNGNEDLAEILQKLN	binding result [1]: no binding (tested: 20 nM (not printed on the sheet))
0.417	DARPin #9 (designed binder, monovalent) MRGSHHHHHHGSDLGHKLLEAAVAGQDDEVRILLAAGADVNAKDWYGKTPLHFAAGLGHLEIVEVLLKAGADVNAKDEDGQTPLHLAAAYGHLEIVEVLLKAGADVNAQDNDGFTPADLAADSGHEDIAEVLQKLN	
	DARPin #41 (designed binder) MRGSHHHHHHGSDLGAKLLSDLGVKLLWAAARGQDDEVRILLAAGADVNAKDFQGITPLHIAAQSGHLEIVEVLLKAGADVNAKDVTGDTPLHLAAQHGHLVIVEVLLKAGADVNAQDERGWTPADLAADWGHEDIAEVLQKLGGGGSGGGGSRSDLGKKLLEAARAGQDDEVRILMANGADVNAKDEYGLTPLYLATAHGHLEIVEVLLKNGADVNAVDAIGFTPLHLAAFIGHLEIAEVLLKHGADVNAQDKFGKTAFDISIGNGNEDLAEILQKLN	IC50, inhibition of BT474 proliferation (single experiment of FIG. 2A) [3]: ~2 nM; % activity vs. DARPin # 41, BT474 cell proliferation [4]: 100%; IC50 [nM], inhibition of BT474 cell proliferation (BrdU) [4]: 4.01 nM
1.3	DARPin #51 (designed binder, monovalent) MRGSHHHHHHGSDLGNKLLIAASVGQDDEVRILLAAGADVNAKDETGWTPLHLAAAWGHLEIVEVLLKAGADVNAKDVKGQTPLHLAAAYGHLEIVEVLLKAGADVNAQDNDGYTPADLAARYGHEDIAEVLQKLN	
1.03	DARPin #7 (designed binder, monovalent) MRGSHHHHHHGSDLGIKLLFAAAKGQDDEVRILLAAGADVNAKDFEGYTPLHVAAYDGHLEIVEVLLKAGADVNAKDSQGRTPLHEAAYSGHLEIVEVLLKAGADVNAQDDAGETPADLAAAWGHEDIAEVLQKLN	
0.944	DARPin #19 (designed binder, monovalent) MRGSHHHHHHGSDLGKKLLEAARAGQDDEVRELLKAGADVNAKDEYGLTPLYLATAHGHLEIVEVLLKNGADVNAVDAIGFTPLHLAAFIGHLEIAEVLLKHGADVNAQDKSGKTPADLAAGAGHEDIAEVLQKLN	
0.258	DARPin #20 (designed binder, monovalent) MRGSHHHHHHGSDLGKKLLEAARAGQDDEVRELLKAGADVNAKDEYGLTPLYLATAHGHLEIVEVLLKAGADVNAVDAIGFTPLHLAAFIGHLEIAEVLLKAGADVNAQDKFGKTPADIAAGAGNEDIAEVLQKLN	
0.0708	DARPin #5 (designed binder, monovalent) MRGSHHHHHHGSDLGVKLLWAAARGQDDEVRILLAAGADVNAKDFQGITPLHIAATNGHLEIVEVLLKAGADVNAKDITGETPLHHAADSGHLEIVEVLLKAGADVNAQDKAGVTPADLAAAWGHEDIAEVLQKLN	
1.46	DARPin #53 (designed binder, monovalent) MRGSHHHHHHGSDLGAKLLWAAAKGQDDEVRILLAAGADVNAKDWEGVTPLHIAAHAGHLEIVEVLLKAGADVNAKDIIGWTPLHSAAVYGHLEIVEVLLKAGADVNAQDWYGTTPADLAAWWGHEDIAVVLQKLN	
0.483	DARPin #8 (designed binder, monovalent) MRGSHHHHHHGSDLGIKLLWAAAHGQDDEVRILLAADADVNAKDWYGTTPLHIAAVAGHLEIVEVLLKAGADVNAKDDFGTTPLHLAAYHGHLEIVEVLLKAGADVNAQDWQGQTPADLAAQDGHEDIAEVLQKLN	
0.137	DARPin #52 (designed binder, monovalent) MRGSHHHHHHGSDLGVKLLWAAAHGQDDEVRILLAADADVNAKDWYGTTPLHIAAVAGHLEIVEVLLKAGADVNAKDDFGTTPLHAAADYGHLEIVEVLLKAGADVNAQDYTGHTPADLAAVYGHEDIAAVLQKLN	
1.65	DARPin #21 (designed binder, monovalent) MRGSHHHHHHGSDLGKKLLEAARAGQDDEVRILMANGADVNATDIHGHTPLHLAAAMGHLEIVEVLLKNGADVNANDWRGFTPLHLAALNGHLEIVEVLLKNGADVNATDTAGNTPLHLAAWFGHLEIVEVLLKNGADVNAQDKFGKTAFDISIDNGNEDLAEILQKLN	
